Test results as given in patent US20020197661.

Biological target: T1, Acetyl-Prolyl-Arginyl-Asparaginyl-Lysyl-aminoacetamide coumarin (Ac-PRNK-ACC)
T1 chain: PRNK

B1: bovine factor Xa protease (Promega) (protein)
chain: ANSFLEEVKQGNLERECLEEACSLEEAREVFEDAEQTDEFWSKYKDGDQCEGHPCLNQGHCKDGIGDYTCTCAEGFEGKNCEFSTREICSLDNGGCDQFCREERSEVRCSCAHGYVLGDDSKSCVSTERFPCGKFTQGRSRRWAIHTSEDALDASELEHYDPADLSPTESSLDLLGLNRTEPSAGEDGSQVVRIVGGRDCAEGECPWQALLVNEENEGFCGGTILNEFYVLTAAHCLHQAKRFTVRVGDRNTEQEEGNEMAHEVEMTVKHSRFVKETYDFDIAVLRLKTPIRFRRNVAPACLPEKDWAEATLMTQKTGIVSGFGRTHEKGRLSSTLKMLEVPYVDRSTCKLSSSFTITPNMFCAGYDTQPEDACQGDSGGPHVTRFKDTYFVTGIVSWGEGCARKGKFGVYTKVSNFLKWIDKIMKARAGAAGSRGHSEAPATWTVPPPLPL
cleavage of the fluorogenic substrate (fluorescence, excitation 355 nm, emission 460 nm): Ac-PRNK-ACC (SEQ. ID. NO: 12) is a specific substrate for tryptase in relation to other blood borne serine proteases
